Several values for one entry are separate records, joined by “and”; a condition that tells them apart may be missing. Equal entries are not always repeated.

In experiment [1] the target is T1, recombinant human PD-1 Fc chimera (human, UniProt Q15116 25-167).
T1 construct: Bought protein; also called human PD-1-huFc; huPD-1-Fc; not shown: human Fc
In words: SPR Biacore T200, PD-1-huFc amine-coupled, single cycle kinetics. The protocol:
Binding kinetics of certain VH single domain antibodies binding to human PD-1-huFc were measured by surface plasmon resonance (SPR) technology using Biacore T200 instrument (GE Healthcare). Recombinant human PD-1-huFc was immobilized by standard amine coupling to CM5 sensorschip (GE Healthcare) using in range of 0.1-0.01 mg/ml solution of antigen in 10 mM sodium acetate at pH 5.5. For the reference flow cell, a blank immobilisation was carried out. Single cycle kinetics assays were used to study the interaction, a five point, three-fold dilution series of each Humabody® was made with a top concentration of 30 nM. The binding kinetics were followed by flowing the Humabody® over the chip surface in HBS EP+ buffer at a flow rate of 30 μl/min. The contact time for each of the association steps was 180 seconds and the dissociation step was varied between 1200-3600 seconds. The data was fitted to a 1:1 binding model after double reference subtraction using the Biacore T200 Evaluation software.

Experiment [2] deals with T2, human PD-1 expressed on cells (CHO human PD-1 cells) (human, UniProt Q15116 21-288). In words: cell-based or functional assay.
In experiment [3] the target is T3, Strep tagged recombinant human PD-1 (human, UniProt Q15116 25-170, limits assumed).
T3 construct: the whole entry is named; also called strep tagged human PD-1; not shown: Strep tag
In words: SPR Biacore T200, strep-tagged PD-1 amine-coupled, single cycle kinetics. The protocol: Single cycle kinetics assays were used to study the interaction between human PD-1 with Humabody® on a Biacore T200 instrument (GE Healthcare). Strep tagged recombinant human PD-1 was amine coupled to one flow cell of a CM-5 chip to create a low density surface (14 RU) using standard Biacore reagents. For the reference flow cell, a blank immobilisation was carried out. A five-point, three-fold dilution series of each Humabody® was made with a top concentration of 25 nM. The binding kinetics were followed by flowing the Humabody® over the chip surface in HBS EP+ buffer at a flow rate of 30 μl/min. The contact time for each of the association steps was 180 seconds and the dissociation step was 3300 seconds. The data was fitted to a 1:1 binding model after double reference subtraction using the Biacore T200 Evaluation software.

For experiment [4], the target named is T2, human PD-1 expressed on cells (CHO …). As to the kind of experiment: FMAT epitope competition on CHO human PD-1 cells; competitor 1 nM 1.1-Strep. As to the method:
For the epitope competition assay reagents were prepared in FMAT assay buffer. […] Plates were incubated for a minimum of 1.5 hours at room temperature then fluorescence measured in the FL2 (502 nm-537 nm) and FL5 (677-800 nm) channels on the Mirrorball plate reader (TTP) following excitation at 488 nm and 640 nm. Data was expressed as a % of the total binding control (i.e. % control) after subtraction of the background signal determined from the non-specific binding control wells.

T3 sequence (Q15116 25-170 limits assumed): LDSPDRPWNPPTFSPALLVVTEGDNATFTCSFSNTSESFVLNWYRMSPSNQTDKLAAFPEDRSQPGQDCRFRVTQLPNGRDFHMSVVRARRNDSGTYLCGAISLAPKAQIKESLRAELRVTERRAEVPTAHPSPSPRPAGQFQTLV
T1 sequence (Q15116 25-167 limits assumed, change not shown): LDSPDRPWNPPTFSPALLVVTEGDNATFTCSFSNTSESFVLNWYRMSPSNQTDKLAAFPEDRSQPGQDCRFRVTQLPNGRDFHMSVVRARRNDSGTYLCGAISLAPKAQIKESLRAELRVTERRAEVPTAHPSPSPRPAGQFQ
T2 sequence (Q15116 21-288): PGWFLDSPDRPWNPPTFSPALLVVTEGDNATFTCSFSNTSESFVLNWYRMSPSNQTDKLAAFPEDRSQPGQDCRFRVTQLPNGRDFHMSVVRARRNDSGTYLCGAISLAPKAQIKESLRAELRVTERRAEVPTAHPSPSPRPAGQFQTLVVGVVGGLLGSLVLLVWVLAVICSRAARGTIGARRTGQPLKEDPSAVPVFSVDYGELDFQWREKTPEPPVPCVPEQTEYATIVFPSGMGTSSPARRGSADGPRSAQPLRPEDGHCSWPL

B1: Humabody® 1.41 (VHH)
VHH: QVQLVESGGGLVKPGGSLRLSCAASGFTFSDNSMTWMRQAPGKGLEWVSYISSGGGVIFYADSVKGRFTISRDNAKNSLYLQMNSLRADDTAVYYCAREAPLRLGESPHDAFDIWGQGTMVTVSS
notes: human VH single domain antibody
Regarding B1, in experiment [1], the Kd is 0.0552 nM and the off-rate (koff) is 2.96e-05 s⁻¹.

B2: Humabody® 1.69 (VHH)
VHH: QVQLVESGGGLVKPGGSLRLSCAASGFTFSDNSMSWMRQAPGKGLEWVSYISSGGGVIFYADSVKGRFTISRDNAKNSLYLQMNSLRADDTAVYYCAREAPLRLGESPHDAFDISGQGTMVTVSS
Regarding B2, in experiment [2], the “Reporter Assay EC50” value amounted to 35 nM.

B3: Humabody® 1.67 (VHH)
VHH: QVQLVESGGGLVKPGGSLRLSCAASGFTFSGSSMTWMRQAPGKGLEWVSYISSGGGVIFYADSVKGRFTISRDNAKNSLYLQMNSLRADDTAVYYCAREAPLRLGESPHDAFDISGQGTMVTVSS
With B3, the “Reporter Assay EC50” value in experiment [2] was determined as 12 nM.

B4: Humabody® 1.84 (VHH)
VHH: EVQLVESGGGLVKPGGSLRLSCAASGFTFSDESMTWMRQAPGKGLEWVSYISSGGGVKFYTDSVKGRFTISRDNAKNSLYLQMNSLRAEDTAVYYCAREAPLRLGESPHDAFDISGQGTMVTVSS
notes: as for B1
Take B4: in experiment [3], the dissociation constant Kd was found to be 0.091 nM, the dissociation rate constant (koff) stood at 7.6e-05 s⁻¹ and the kon came out at 830000 M⁻¹ s⁻¹.

B5: Humabody® 1.70 (VHH)
VHH: QVQLVESGGGLVKPGGSLRLSCAASGFTFGDSSMTWMRQAPGKGLEWVSYISSGGAVKFYTDSVKGRFTISRDNAKNSLYLQMNSLRADDTAVYYCAREAPLRLGESPHDAFDISGQGTMVTVSS
Take B5: the “Reporter Assay EC50” value in experiment [2] was found to be 29 nM.

B6: Humabody® 1.71 (VHH)
VHH: QVQLVESGGGLVKPGGSLRLSCAASGFTFGGSSMTWMRQAPGKGLEWVSYISSGGGVKFYTDSVKGRFTISRDNAKNSLYLQMNSLRADDTAVYYCAREAPLRLGESPHDAFDISGQGTMVTVSS
Take B6: the “Reporter Assay EC50” value in experiment [2] turned out to be 7.43 nM.

B7: Humabody® 1.72 (VHH)
VHH: QVQLVESGGGLVKPGGSLRLSCAASGFTFSDSSMSWMRQAPGKGLEWVSYISSGGGVIFYADSVKGRFTISRDNAKNSLYLQMNSLRADDTAVYYCAREAPLRLGESPHDAFDISGQGTMVTVSS
As for B7, the “Reporter Assay EC50” value in experiment [2] came to 26.1 nM.

B8: Humabody® 1.45 (VHH)
VHH: QVQLVESGGGLVKPGGSLRLSCAASGFTFSDYSMSWMRQAPGKGLEWVSYISSGGGVIFYADSVKGRFTISRDNAKNSLYLQMNSLRADDTAVYYCAREAPLRLGESPHDAFDIWGQGTMVTVSS
notes: as for B1
With B8, in experiment [2], the “Reporter Assay EC50” value turned out to be 74 nM. For the same molecule, the IC50 in experiment [4] worked out at 2.5 nM.

B9: Humabody® 1.49 (VHH)
VHH: QVQLVESGGGLVKPGGSLRLSCAASGFTFSDSSMSWMRQAPGKGLEWVSYISTGGGVKFYADSVKGRFTISRDNAKNSLYLQMNSLRADDTAVYYCAREAPLRLGESPHDAFDIWGQGTMVTVSS
notes: as for B1
With B9, in experiment [1], the dissociation constant Kd was determined as 0.11 nM, the dissociation rate constant (koff) was determined as 2.89e-05 s⁻¹ and the kon was 263000 M⁻¹ s⁻¹.

B10: Humabody® 1.105 (VHH)
VHH: EVQLVESGGGLVKPGGSLRLSCAASGFTFSDESLTWMRQAPGKGLEWVSYISSGGGVKFYTDSVKGRFTISRDNAKNSLYLQMNSLRAEDTAVYYCAREAPLRLGESPHDAFDISGQGTMVTVSS
notes: as for B1
As to B10, in experiment [3], the Kd is 0.091 nM, the off-rate (koff) came to 8.7e-05 s⁻¹ and the kon was 950000 M⁻¹ s⁻¹.

B11: Humabody® 1.94 (VHH)
VHH: EVQLVESGGGLVKPGGSLRLSCAASGFTFSDWSMTWMRQAPGKGLEWVSYISSGGGVKFYADSVKGRFTISRDNAKNSLYLQMNSLRAEDTAVYYCAREAPLRLGESPHDAFDISGQGTMVTVSS
notes: as for B1
For B11, in experiment [4], the IC50 was found to be 4.2 nM.

B12: Humabody® 1.50 (VHH)
VHH: QVQLVESGGGLVKPGGSLRLSCAASGFTFSDNSMTWMRQAPGKGLEWVSYISSGGTIKFYADSVKGRFTISRDNAKNSLYLQMNSLRADDTAVYYCAREAPLRLGESPHDAFDIWGQGTMVTVSS
notes: as for B1
In the case of B12, in experiment [1], the Kd came out at 0.0581 nM, the dissociation rate constant (koff) was 2.34e-05 s⁻¹ and the on-rate (kon) worked out at 402000 M⁻¹ s⁻¹.

B13: Humabody® 1.104 (VHH)
VHH: EVQLVESGGGLVKPGGSLRLSCAASGFTFSDESFTWMRQAPGKGLEWVSYISSGGGVKFYTDSVKGRFTISRDNAKNSLYLQMNSLRAEDTAVYYCAREAPLRLGESPHDAFDISGQGTMVTVSS
notes: as for B1
Turning to B13, in experiment [3], the Kd is 0.08 nM, the koff stood at 6.3e-05 s⁻¹ and the on-rate (kon) amounted to 780000 M⁻¹ s⁻¹.

B14: Humabody® 1.101 (VHH)
VHH: EVQLVESGGGLVKPGGSLRLSCAASGFTFSDFSMTWMRQAPGKGLEWVSYISSGGGVKFYADSVKGRFTISRDNAKNSLYLQMNSLRAEDTAVYYCAREAPLRLGESPHDAFDISGQGTMVTVSS
notes: as for B1
In experiment [4], B14 had an IC50 of 3 nM.

B15: Humabody® 1.56 (VHH)
VHH: QVQLVESGGGLVKPGGSLRLSCAASGFTFSDNSMTWMRQAPGKGLEWVSYISSGGAVKFYADSVKGRFTISRDNAKNSLYLQMNSLRADDTAVYYCAREAPLRLGESPHDAFDILGQGTMVTVSS
notes: as for B1
For the molecule B15, in experiment [1], the dissociation constant (Kd) came out at 0.0355 nM, the koff was determined as 1.53e-05 s⁻¹ and the kon was 432000 M⁻¹ s⁻¹.

B16: Humabody® 1.52 (VHH)
VHH: QVQLVESGGGLVKPGGSLRLSCAASGFTFSDNSMTWMRQAPGKGLEWVSYISSGGGVKYYADSVKGRFTISRDNAKNSLYLQMNSLRADDTAVYYCAREAPLRLGESPHDAFDIWGQGTMVTVSS
notes: as for B1
Turning to B16, in experiment [1], the equilibrium dissociation constant (Kd) is 0.299 nM and 0.256 nM; the dissociation rate constant (koff) is 6.14e-05 s⁻¹ and 7.61e-05 s⁻¹; the kon is 205000 M⁻¹ s⁻¹ and 297000 M⁻¹ s⁻¹.

B17: Humabody® 1.55 (VHH)
VHH: QVQLVESGGGLVKPGGSLRLSCAASGFTFSDNSMTWMRQAPGKGLEWVSYISSGGGVKFYADSVKGRFTISRDNAKNSLYLQMNSLRADDTAVYYCAREAPLRLGESPHDAFDISGQGTMVTVSS
notes: as for B1
Regarding B17, in experiment [1], the Kd was determined as 0.0364 nM, the koff amounted to 1.95e-05 s⁻¹ and the kon worked out at 535000 M⁻¹ s⁻¹.

B18: Humabody® 1.46 (VHH)
VHH: QVQLVESGGGLVKPGGSLRLSCAASGFTFSDSSMSWMRQAPGKGLEWVSYISSGGGVIFYADSVKGRFTISRDNAKNSLYLQMNSLRADDTAVYYCAREAPLRLGESPHDAFDIWGQGTMVTVSS
notes: as for B1
On to B18, for which the “Reporter Assay EC50” value in experiment [2] came to 45 nM. The same molecule showed an IC50 in experiment [4] of 1.8 nM.

B19: Humabody® 1.54 (VHH)
VHH: QVQLVESGGGLVKPGGSLRLSCAASGFTFSDDSMTWMRQAPGKGLEWVSYISSGGGVIFYADSVKGRFTISRDNAKNSLYLQMNSLRADDTAVYYCAREAPLRLGESPHDAFDIWGQGTMVTVSS
notes: as for B1
As for B19, in experiment [1], the Kd stood at 0.0856 nM, the off-rate constant (koff) turned out to be 4.53e-05 s⁻¹ and the on-rate constant (kon) came to 530000 M⁻¹ s⁻¹.

B20: Humabody® 1.47 (VHH)
VHH: QVQLVESGGGLVKPGGSLRLSCAASGFTFSDNSMSWMRQAPGKGLEWVSYISSGGGVIFYADSVKGRFTISRDNAKNSLYLQMNSLRADDTAVYYCAREAPLRLGESPHDAFDIWGQGTMVTVSS
notes: as for B1
For the molecule B20, the “Reporter Assay EC50” value in experiment [2] amounted to 27 nM. The same molecule returned an IC50 in experiment [4] of 4.4 nM.

B21: Humabody® 1.48 (VHH)
VHH: QVQLVESGGGLVKPGGSLRLSCAASGFTFSDSSMTWMRQAPGKGLEWVSYISSGGGVKFYADSVKGRFTISRDNAKNSLYLQMNSLRADDTAVYYCAREAPLRLGESPHDAFDIWGQGTMVTVSS
notes: as for B1
On to B21, for which the “Reporter Assay EC50” value in experiment [2] turned out to be 18 nM. In experiment [1], the Kd came out at 0.106 nM, the koff came to 5.24e-05 s⁻¹ and the kon was 496000 M⁻¹ s⁻¹.

B22: 1.77-4GS-non-blocking VH (3) (bispecific antibody)
chain: EVQLVESGGGLVKPGGSLRLSCAASGFTFSDSSMTWMRQAPGKGLEWVSYISSGGGVKFYTDSVKGRFTISRDNAKNSLYLQMNSLRAEDTAVYYCAREAPLRLGESPHDAFDISGQGTMVTVSSGGGGSGGGGSGGGGSGGGGSEVQLVESGGGLVQPGRSLRLSCAASGFTFDDYAMHWVRQAPGKDLEWVSGISWNGGSMGYAASVKGRFTISRDNAKNSLYLQMNSLRAEDTALYYCVREKGPGLTGSTADYYGLDVWGQGTMVTVSS
For B22, in experiment [3], the dissociation constant Kd stood at 0.063 nM, the koff was 3.5e-05 s⁻¹ and the on-rate constant (kon) is 550000 M⁻¹ s⁻¹.

Values taken from US20200239573A1 (CRESCENDO BIOLOGICS, published 2020).
